Reference: patent publication US20230407297A1, “BIOENGINEERED WNT5A THERAPEUTICS FOR ADVANCED CANCERS” (The Regents of the University of California, priority 2020, published 2023)
Entries after “also recorded” stand apart in the source; their conditions may differ.

What was measured:
LuCaP 35CR PDX tumors = test: LuCaP 35CR patient derived xenograft model, combination with enzalutamide (Example 3); format: in vivo, mouse; settings: single treatment
Text: (§1) FIGS. 9A-9E. Targeting Wnt5A by BERA-Wnt5a siRNA resensitizes LuCaP35CR PDX organoids and tumor growth to enzalutamide treatment. FIG. 9A: Organoids derived from the LuCaP PDX model were established in an ex vivo 3D Matrigel format and treated with bioengineered BERA-Wnt5a siRNA. […] FIG. 9D: Mouse body weight was unaffected by all of the treatments.
(§2) To examine if targeting Wnt5a enhances enzalutamide treatment in resistant prostate cancer, we examined the combinational effects of targeting Wnt5a and enzalutamide in an ex vivo model. Organoids derived from the LuCaP PDX model were established in an ex vivo 3D Matrigel format and treated with bioengineered BERA-Wnt5a siRNA. […] To further determine the anti-tumor effects of Wnt5a inhibition in vivo, we employed a LuCaP 35CR patient derived xenograft model, which was treated with bioengineered BERA-Wnt5a siRNA.

LuCaP 35CR organoids = test: LuCaP 35CR organoids, ex vivo 3D Matrigel; format: cell-based; settings: single treatment
Text: as §1, §2

Wnt5A = Wnt5A expression in CWR22rv1 cells; format: cell-based
PS1172 CRC cells = test: PS1172 CRC cell number, combination with enzalutamide; format: cell-based; settings: Wnt5a siRNA + enzalutamide 20 μM, 3 days and 6 days
Method: (§3) FIGS. 5A-5B. […] Resistant C4-2B MDVR and PS1172 CRC prostate cancer cells were treated with either enzalutamide (Enza) or Wnt5a siRNA (#1) or the combination (#1+Enza) for three days and 5 days, and the cell numbers were determined.
(§4) Enzalutamide resistant C4-2B MDVR cells and PS1172 CRC cells were treated with either enzalutamide (20 μM) or Wnt5a siRNA (#1) or their combination (enza+#1) for 3 days and 5 days (C4-2B MDVR cells) or 3 days and 6 days (PS1172 CRC cells), and the cell numbers were determined.

C4-2B MDVR cells = test: C4-2B MDVR cell number, combination with antiandrogens; format: cell-based
Method: as §3
FIGS. 6A-6C. […] Resistant C4-2B MDVR prostate cancer cells were treated with either enzalutamide (Enza, 20 uM) or tRNA-1 (10 nM) or tRNA-2 (10 nM) or the combination (combination) for 3 days and 6 days, and the cell numbers were determined.
FIGS. 7A-7B. Combination of tRNA Wnt5a with antiandrogens in C4-2B MDVR cells. C4-2B MDVR cells were treated with tRNA Wnt5a and antiandrogens such as apalutamide (Apa), darolutamide (Daro), enzalutamide (enza) individually or combination for 3 days and 6 days and the cell number was determined.
as §4
Resistant C4-2B MDVR prostate cancer cells were treated with either enzalutamide (Enza, 20 uM) or tRNA-1 (10 nM) or tRNA-2 (10 nM) or their combination for 3 days and 6 days, and the cell numbers were determined.
Knockdown of Wnt5a by tRNA-Wnt5a siRNA enhances anti-androgen (enzalutamide, apalutamide, darolutamide) treatments (FIG. 7A). Resistant C4-2B MDVR cells were treated with tRNA Wnt5a siRNA-2 and antiandrogens such as apalutamide (Apa), darolutamide (Daro), enzalutamide (enza) individually or their combination for 3 days and 6 days and the cell number was determined.

[1] = system: enzalutamide resistant CWR22rv1 cells; test: CWR22rv1 cell growth, alone and with enzalutamide; format: cell-based; settings: for improvement of enzalutamide treatment: CWR22rv1 cells, combined with enzalutamide; for cell growth: enzalutamide resistant CWR22rv1 cells, single agent
Text: In addition to spectrometry and gel electrophoresis analyses of target Wnt5A-siRNAs during the purification described above, we conducted HPLC analysis to validate the purity of isolated siRNAs and LC-MS studies to verify RNA sequence and identify possible posttranscriptional modifications.

Q: What does the source list for `CNC(=O)c1ccc(N2C(=S)N(c3ccc(C#N)c(C(F)(F)F)c3)C(=O)C2(C)C)cc1F` [enzalutamide]?
A: PSA expression (LuCaP 35CR PDX tumors): without reaching significance; tumor growth (LuCaP 35CR PDX tumors): resistant; organoid response (LuCaP 35CR organoids): resistant

Q: How did the Wnt5A expression (Wnt5A) turn out when “Wnt5a siRNA (#1): siRNA specific to Wnt5a, 5′-ACAAACUGGUCCACGAUCUCCGUGC-3′ (expressed or natural sequence)” was run?
A: downregulated Wnt5A expression

Q: What about the “effect on enzalutamide treatment (cell numbers)” value (“effect … (cell numbers)” for short) (PS1172 CRC cells) of the same molecule?
A: synergistically enhanced enzalutamide treatment; also recorded: re-sensitize cells to enzalutamide

Q: What about the “effect … (cell numbers)” value (C4-2B MDVR cells; Wnt5a siRNA + enzalutamide 20 μM, 3 days and 5 days) of the same molecule?
A: synergistically enhanced enzalutamide treatment; also recorded: re-sensitize cells to enzalutamide

B1: tRNA-siWnt5A-1: bioengineered tRNA-pre-miRNA chimera (human tRNA Leu / pre-miR-34a carrier) carrying Wnt5a siRNA #1, FIG. 8A, SEQ ID NO:20 (nucleic acid)
chain: NNCNCAACANAAAAAACNNNGNGNAANACNNGNAACGCNGAANNCACCAGGANGGCCGAGNGGNNAAGGCGNNGGACNGGCCAGCNGNGAGNGNNNCNNACAAACUGGUCCACGAUCUCCGNGNGAGCAANAGNAAGGAAUGGAGAUCGGGAUCCAGUUUGCUAGAAGNGCNGCACGNNGNNGGCCCGANCCAANGGACANANGNCCGCGNGGGNNCGAACCCCACNCCNGGNACCACNGCAGANCCNNAGCGAAAGCNAAGGANNNNNNNN
modifications: modified_base (1)..(2) t or u; modified_base (4)..(4) t or u; modified_base (10)..(10) t or u; modified_base (18)..(20) t or u; modified_base (22)..(22) t or u; modified_base (24)..(24) t or u; modified_base (27)..(27) t or u; modified_base (30)..(31) t or u; modified_base (33)..(33) t or u; modified_base (39)..(39) t or u; modified_base (43)..(44) t or u; modified_base (53)..(53) t or u; modified
Q: With B1 as the molecule, how does the “improvement of enzalutamide treatment” value [1] read?
A: improved enzalutamide treatment; also recorded: improved enza treatment

Q: What about the cell growth [1] of the same molecule?
A: inhibited cell growth

Q: And the Wnt5A expression (Wnt5A)?
A: downregulated Wnt5A expression

Q: And the “effect … (cell numbers)” value (C4-2B MDVR cells; chimera 10 nM + Enza 20 uM, 3 days and 6 days, listed as tRNA-Wnt5a siRNA-1)?
A: enhanced enzalutamide; also recorded: synergizes enzalutamide

B2: tRNA-siWnt5A-2: bioengineered tRNA-pre-miRNA chimera (human tRNA Leu / pre-miR-34a carrier) carrying Wnt5a siRNA #2, FIG. 8B, SEQ ID NO:21 (nucleic acid)
chain: NNCNCAACANAAAAAACNNNGNGNAANACNNGNAACGCNGAANNCACCAGGANGGCCGAGNGGNNAAGGCGNNGGACNGGCCAGCNGNGAGNGNNNCNNCUAGGAAGAACUUGGAAGACAUNGNGAGCAANAGNAAGGAAGUGUCUUCCGGUCUUUUCCUACUAGAAGNGCNGCACGNNGNNGGCCCGANCCAANGGACANANGNCCGCGNGGGNNCGAACCCCACNCCNGGNACCACNGCAGANCCNNAGCGAAAGCNAAGGANNNNNNNN
modifications: modified_base (1)..(2) t or u; modified_base (4)..(4) t or u; modified_base (10)..(10) t or u; modified_base (18)..(20) t or u; modified_base (22)..(22) t or u; modified_base (24)..(24) t or u; modified_base (27)..(27) t or u; modified_base (30)..(31) t or u; modified_base (33)..(33) t or u; modified_base (39)..(39) t or u; modified_base (43)..(44) t or u; modified_base (53)..(53) t or u; modified
Q: Which “improvement of enzalutamide treatment” value [1] does the source give for B2 here?
A: improved enzalutamide treatment; also recorded: improved enza treatment

Q: What about the cell growth [1] of the same molecule?
A: inhibited cell growth

Q: What about the Wnt5A expression (Wnt5A) of the same molecule?
A: downregulated Wnt5A expression

Q: What about the “effect … (cell numbers)” value (C4-2B MDVR cells; chimera 10 nM + Enza 20 uM, 3 days and 6 days, listed as tRNA-Wnt5a siRNA-2) of the same molecule?
A: enhanced enzalutamide; also recorded: synergizes enzalutamide

Q: And the “effect on apalutamide treatment (cell number)” value (C4-2B MDVR cells; combination with apalutamide, 3 days and 6 days)?
A: enhances

Q: And the “effect on darolutamide treatment (cell number)” value (C4-2B MDVR cells; combination with darolutamide, 3 days and 6 days)?
A: enhances

Q: What about the “effect on enzalutamide treatment (cell number)” value (C4-2B MDVR cells; combination with enzalutamide, 3 days and 6 days) of the same molecule?
A: enhances
